Data as given in publication PMC9482650, “Quantitative fragmentomics allow affinity mapping of interactomes” (Nature Communications, 2022).

Tests used:
Experiment in all cases: holdup assay
Parameters in all cases: key: below the threshold = too weak to quantify, mostly under pKd 3.1 to 4
Conditions in all cases: plain residues with an end cap or a label only (N-terminal biotin on a linker: ado-ado)
APBA1_1, Q02410 = biological target: T1, APBA1_1, Q02410
T1 sequence (Q02410 651-752, limits assumed, looked up): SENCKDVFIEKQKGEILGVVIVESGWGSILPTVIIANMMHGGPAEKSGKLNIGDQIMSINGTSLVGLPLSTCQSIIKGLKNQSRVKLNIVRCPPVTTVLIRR

APBA2_1, Q99767 = biological target: T2, APBA2_1, Q99767
T2 sequence (Q99767 563-664, limits assumed, looked up): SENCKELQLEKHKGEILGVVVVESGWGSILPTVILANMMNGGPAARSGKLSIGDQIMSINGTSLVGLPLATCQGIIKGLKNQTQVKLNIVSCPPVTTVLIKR

APBA2_2, Q99767 = biological target: T3, APBA2_2, Q99767
T3 sequence (Q99767 654-744, limits assumed, looked up): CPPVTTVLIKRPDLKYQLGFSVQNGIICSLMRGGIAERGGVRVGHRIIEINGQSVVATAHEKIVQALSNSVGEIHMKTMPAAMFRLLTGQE

ARHGEF12, Q9NZN5-2 = biological target: ARHGEF12, Q9NZN5-2
Sequence of ARHGEF12, Q9NZN5-2 (Q9NZN5 other isoform, or with tags, fused parts or gaps): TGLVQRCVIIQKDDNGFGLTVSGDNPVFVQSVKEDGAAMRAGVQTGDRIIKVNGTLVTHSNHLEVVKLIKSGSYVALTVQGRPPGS

DLG1_3, Q12959 = biological target: DLG1_3, Q12959
Sequence of DLG1_3, Q12959 (Q12959 457-571): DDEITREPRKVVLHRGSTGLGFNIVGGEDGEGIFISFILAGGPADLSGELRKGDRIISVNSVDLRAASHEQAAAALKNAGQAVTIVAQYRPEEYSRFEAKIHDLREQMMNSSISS

DLG3_1, Q92796 = biological target: T4, DLG3_1, Q92796
T4 sequence (Q92796 125-227, limits assumed, looked up): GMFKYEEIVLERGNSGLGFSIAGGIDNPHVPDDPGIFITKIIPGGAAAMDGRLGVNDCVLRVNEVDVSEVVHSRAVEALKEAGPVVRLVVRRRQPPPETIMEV

DLG3_2, Q92796 = biological target: T5, DLG3_2, Q92796
T5 sequence (Q92796 221-321, limits assumed, looked up): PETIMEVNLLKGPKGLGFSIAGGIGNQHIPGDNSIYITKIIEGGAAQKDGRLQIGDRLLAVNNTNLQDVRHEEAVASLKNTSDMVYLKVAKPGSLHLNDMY

FRMPD3, Q5JV73 = biological target: FRMPD3, Q5JV73
Sequence of FRMPD3, Q5JV73 (Q5JV73 12-100): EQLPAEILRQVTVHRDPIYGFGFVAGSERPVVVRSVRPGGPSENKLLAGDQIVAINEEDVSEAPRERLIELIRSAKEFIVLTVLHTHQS

GRASP, Q7Z6J2 = biological target: GRASP, Q7Z6J2
Sequence of GRASP, Q7Z6J2 (Q7Z6J2 96-193): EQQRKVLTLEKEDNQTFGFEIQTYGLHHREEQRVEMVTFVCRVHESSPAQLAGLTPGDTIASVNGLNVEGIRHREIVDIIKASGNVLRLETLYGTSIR

GRIP2_7, Q9C0E4 = biological target: GRIP2_7, Q9C0E4
Sequence of GRIP2_7, Q9C0E4 (Q9C0E4 934-1023): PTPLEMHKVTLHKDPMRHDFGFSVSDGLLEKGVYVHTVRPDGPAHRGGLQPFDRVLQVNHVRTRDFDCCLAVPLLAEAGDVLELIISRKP

HTRA2, O43464 = biological target: HTRA2, O43464
Sequence of HTRA2, O43464 (O43464 355-458): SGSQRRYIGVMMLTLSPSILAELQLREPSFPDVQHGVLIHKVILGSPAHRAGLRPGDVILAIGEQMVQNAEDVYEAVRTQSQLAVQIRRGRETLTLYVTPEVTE

Inadl_10, Q8NI35 = biological target: Inadl_10, Q8NI35
Sequence of Inadl_10, Q8NI35 (Q8NI35 1673-1763): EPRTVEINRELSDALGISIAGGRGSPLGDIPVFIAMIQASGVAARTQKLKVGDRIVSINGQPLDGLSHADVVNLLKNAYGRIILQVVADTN

Inadl_9, Q8NI35 = biological target: Inadl_9, Q8NI35
Sequence of Inadl_9, Q8NI35 (Q8NI35 1530-1615): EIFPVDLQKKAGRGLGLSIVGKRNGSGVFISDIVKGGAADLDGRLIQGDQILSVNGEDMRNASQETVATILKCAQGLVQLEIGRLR

LIMK2, P53671 = biological target: LIMK2, P53671
Sequence of LIMK2, P53671 (P53671 143-248): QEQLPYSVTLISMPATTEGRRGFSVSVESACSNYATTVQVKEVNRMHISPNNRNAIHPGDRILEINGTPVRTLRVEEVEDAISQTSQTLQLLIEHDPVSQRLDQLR

LIN7A, O14910 = biological target: T6, LIN7A, O14910
T6 sequence (O14910 103-200, limits assumed, looked up): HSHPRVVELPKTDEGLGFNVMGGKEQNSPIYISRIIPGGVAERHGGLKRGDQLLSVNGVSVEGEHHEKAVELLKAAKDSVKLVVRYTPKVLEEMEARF

LIN7C, Q9NUP9 = biological target: T7, LIN7C, Q9NUP9
T7 sequence (Q9NUP9 88-185, limits assumed, looked up): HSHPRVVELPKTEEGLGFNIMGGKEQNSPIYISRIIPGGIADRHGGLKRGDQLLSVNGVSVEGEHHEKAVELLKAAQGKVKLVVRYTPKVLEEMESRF

LNX1_1, Q8TBB1 = biological target: LNX1_1, Q8TBB1
Sequence of LNX1_1, Q8TBB1 (Q8TBB1 261-371): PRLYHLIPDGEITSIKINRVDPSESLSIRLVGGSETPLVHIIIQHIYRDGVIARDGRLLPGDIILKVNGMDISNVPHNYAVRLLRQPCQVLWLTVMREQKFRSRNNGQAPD

LNX1_2, Q8TBB1 = biological target: LNX1_2, Q8TBB1
Sequence of LNX1_2, Q8TBB1 (Q8TBB1 371-470): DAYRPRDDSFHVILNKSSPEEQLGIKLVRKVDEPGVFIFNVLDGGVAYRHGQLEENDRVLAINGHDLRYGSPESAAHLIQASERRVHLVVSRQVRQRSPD

MAGI2_6, Q86UL8 = biological target: MAGI2_6, Q86UL8
Sequence of MAGI2_6, Q86UL8 (Q86UL8 1141-1229): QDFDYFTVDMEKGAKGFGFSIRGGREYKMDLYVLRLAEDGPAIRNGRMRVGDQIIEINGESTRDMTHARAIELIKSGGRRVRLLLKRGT

MAGI3_2, Q5TCQ9 = biological target: MAGI3_2, Q5TCQ9
Sequence of MAGI3_2, Q5TCQ9 (Q5TCQ9 398-503): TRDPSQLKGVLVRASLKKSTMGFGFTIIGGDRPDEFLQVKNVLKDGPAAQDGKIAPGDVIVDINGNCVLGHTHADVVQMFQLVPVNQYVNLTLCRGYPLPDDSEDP

PARD3B_1, Q8TEW8 = biological target: T8, PARD3B_1, Q8TEW8
T8 sequence (Q8TEW8 196-299, limits assumed, looked up): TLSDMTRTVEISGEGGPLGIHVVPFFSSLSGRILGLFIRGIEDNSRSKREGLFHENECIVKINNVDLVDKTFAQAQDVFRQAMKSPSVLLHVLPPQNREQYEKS

PCLO, Q9Y6V0 = biological target: T9, PCLO, Q9Y6V0
T9 sequence (Q9Y6V0 4491-4600, limits assumed, looked up): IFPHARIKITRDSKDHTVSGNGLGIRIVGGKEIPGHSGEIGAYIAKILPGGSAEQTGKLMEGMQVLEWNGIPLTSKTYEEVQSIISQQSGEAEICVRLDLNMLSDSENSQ

RAPGEF6, Q8TEU7 = biological target: T10, RAPGEF6, Q8TEU7
T10 sequence (Q8TEU7 525-625, limits assumed, looked up): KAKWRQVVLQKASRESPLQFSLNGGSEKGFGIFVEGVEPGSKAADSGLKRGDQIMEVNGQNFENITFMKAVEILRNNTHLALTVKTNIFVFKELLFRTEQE

SNTG2, Q9NY99 = biological target: T11, SNTG2, Q9NY99
T11 sequence (Q9NY99 68-166, limits assumed, looked up): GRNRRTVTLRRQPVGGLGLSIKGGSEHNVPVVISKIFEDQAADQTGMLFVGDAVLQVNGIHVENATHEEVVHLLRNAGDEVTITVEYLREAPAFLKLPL

TX1BP3, O14907 = biological target: T12, TX1BP3, O14907
T12 sequence (O14907 10-122, limits assumed, looked up): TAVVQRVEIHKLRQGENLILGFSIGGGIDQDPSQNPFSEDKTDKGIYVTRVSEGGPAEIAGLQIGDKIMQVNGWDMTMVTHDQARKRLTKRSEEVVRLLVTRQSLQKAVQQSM

Question: Which results are given for FHSIKQSTAV [CRHR1, P34998]?
Answer: pKd (APBA1_1, Q02410): below the threshold; pKd (APBA2_1, Q99767): below the threshold; pKd (APBA2_2, Q99767): below the threshold; pKd (ARHGEF12, Q9NZN5-2): 4.63; pKd (DLG1_3, Q12959): 3.96; pKd (DLG3_1, Q92796): 4.04; pKd (DLG3_2, Q92796): 4.61; pKd (FRMPD3, Q5JV73): below the threshold; pKd (GRASP, Q7Z6J2): 4.72; pKd (GRIP2_7, Q9C0E4): below the threshold; pKd (HTRA2, O43464): below the threshold; pKd (Inadl_10, Q8NI35): below the threshold; pKd (Inadl_9, Q8NI35): 3.83; pKd (LIMK2, P53671): below the threshold; pKd (LIN7A, O14910): below the threshold; pKd (LIN7C, Q9NUP9): below the threshold; pKd (LNX1_1, Q8TBB1): below the threshold; pKd (LNX1_2, Q8TBB1): below the threshold; pKd (MAGI2_6, Q86UL8): 3.83; pKd (MAGI3_2, Q5TCQ9): 5.01; pKd (PARD3B_1, Q8TEW8): below the threshold; pKd (PCLO, Q9Y6V0): below the threshold; pKd (RAPGEF6, Q8TEU7): below the threshold; pKd (SNTG2, Q9NY99): 3.6; pKd (TX1BP3, O14907): 4.11
